Measured values from the supplement of paper PMC10065799, “High-throughput profiling of sequence recognition by tyrosine kinases and SH2 domains using bacterial peptide display” (eLife, 2023).

Key:
SHP2-C SH2 = assay: SH2 binding enrichment of the phosphorylated peptide, bacterial display (enrichment ratio); higher = better substrate or ligand; peptides without Tyr show the background
Grb2 SH2 = Grb2 SH2 (UniProt P62993); assay: as above
c-Src SH2 = assay: as above
Jak2 = Jak2 (UniProt O60674); assay: phosphorylation enrichment, bacterial display (enrichment ratio); higher = better substrate or ligand; peptides without Tyr show the background
Fyn = Fyn (UniProt P06241); assay: as above
Hck = Hck (UniProt P08631); assay: as above
AncSZ = assay: as above
EPHB2 = EPHB2 (UniProt P29323); assay: as above
Fes = Fes (UniProt P07332); assay: as above
FGFR1 = FGFR1 (UniProt P11362); assay: as above
c-Src = assay: as above
FGFR3 = FGFR3 (UniProt P22607); assay: as above
Fer (mouse) = assay: as above
EPHB1 = EPHB1 (UniProt P54762); assay: as above
MERTK = MERTK (UniProt Q12866); assay: as above
c-Abl (mouse) = assay: as above
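For SH2 binding enrichment of the phosphorylated peptide, bacterial display in this document: peptide library displayed on the E. coli surface as eCPX fusions, selected cells deep-sequenced, score is each peptide's frequency after selection divided by its frequency in the input.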
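For phosphorylation enrichment, bacterial display in this document: 11-residue human phosphosite peptides and single-mutation variants displayed on the E. coli surface, counted by deep sequencing, each peptide's frequency after selection divided by its frequency in the unselected input library; frequency after pTyr selection over input frequency; kinase dosed for 20-30% of maximal phosphorylation in three min.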

Sequence of Fyn (P06241 whole entry, looked up): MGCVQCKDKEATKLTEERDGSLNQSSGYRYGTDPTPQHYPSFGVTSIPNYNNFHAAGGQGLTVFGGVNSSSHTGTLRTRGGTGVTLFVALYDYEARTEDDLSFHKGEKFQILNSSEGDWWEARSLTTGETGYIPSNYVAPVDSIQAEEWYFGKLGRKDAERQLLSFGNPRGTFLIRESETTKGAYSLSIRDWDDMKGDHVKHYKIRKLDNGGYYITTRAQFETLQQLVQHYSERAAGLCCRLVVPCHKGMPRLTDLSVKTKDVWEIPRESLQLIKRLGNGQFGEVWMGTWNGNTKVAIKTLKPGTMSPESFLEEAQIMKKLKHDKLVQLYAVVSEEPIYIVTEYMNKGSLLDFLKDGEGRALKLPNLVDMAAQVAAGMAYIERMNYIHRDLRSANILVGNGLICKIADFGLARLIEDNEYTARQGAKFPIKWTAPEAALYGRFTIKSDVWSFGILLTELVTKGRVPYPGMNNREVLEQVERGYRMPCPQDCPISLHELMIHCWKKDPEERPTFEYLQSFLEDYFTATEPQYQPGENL
Sequence of Hck (P08631 whole entry, looked up): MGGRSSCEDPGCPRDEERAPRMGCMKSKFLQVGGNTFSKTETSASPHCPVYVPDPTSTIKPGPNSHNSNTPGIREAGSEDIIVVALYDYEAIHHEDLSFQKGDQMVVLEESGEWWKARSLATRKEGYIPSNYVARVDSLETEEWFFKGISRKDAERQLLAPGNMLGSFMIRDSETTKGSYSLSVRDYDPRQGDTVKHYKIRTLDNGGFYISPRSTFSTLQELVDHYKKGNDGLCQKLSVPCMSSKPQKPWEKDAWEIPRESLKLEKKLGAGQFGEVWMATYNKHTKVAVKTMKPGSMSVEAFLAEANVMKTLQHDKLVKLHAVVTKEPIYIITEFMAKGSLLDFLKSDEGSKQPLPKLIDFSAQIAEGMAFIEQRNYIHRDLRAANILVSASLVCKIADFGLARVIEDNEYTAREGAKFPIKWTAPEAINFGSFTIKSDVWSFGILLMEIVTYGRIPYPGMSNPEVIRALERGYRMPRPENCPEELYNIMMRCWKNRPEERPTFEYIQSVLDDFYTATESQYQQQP
Sequence of FGFR3 (P22607 whole entry, looked up): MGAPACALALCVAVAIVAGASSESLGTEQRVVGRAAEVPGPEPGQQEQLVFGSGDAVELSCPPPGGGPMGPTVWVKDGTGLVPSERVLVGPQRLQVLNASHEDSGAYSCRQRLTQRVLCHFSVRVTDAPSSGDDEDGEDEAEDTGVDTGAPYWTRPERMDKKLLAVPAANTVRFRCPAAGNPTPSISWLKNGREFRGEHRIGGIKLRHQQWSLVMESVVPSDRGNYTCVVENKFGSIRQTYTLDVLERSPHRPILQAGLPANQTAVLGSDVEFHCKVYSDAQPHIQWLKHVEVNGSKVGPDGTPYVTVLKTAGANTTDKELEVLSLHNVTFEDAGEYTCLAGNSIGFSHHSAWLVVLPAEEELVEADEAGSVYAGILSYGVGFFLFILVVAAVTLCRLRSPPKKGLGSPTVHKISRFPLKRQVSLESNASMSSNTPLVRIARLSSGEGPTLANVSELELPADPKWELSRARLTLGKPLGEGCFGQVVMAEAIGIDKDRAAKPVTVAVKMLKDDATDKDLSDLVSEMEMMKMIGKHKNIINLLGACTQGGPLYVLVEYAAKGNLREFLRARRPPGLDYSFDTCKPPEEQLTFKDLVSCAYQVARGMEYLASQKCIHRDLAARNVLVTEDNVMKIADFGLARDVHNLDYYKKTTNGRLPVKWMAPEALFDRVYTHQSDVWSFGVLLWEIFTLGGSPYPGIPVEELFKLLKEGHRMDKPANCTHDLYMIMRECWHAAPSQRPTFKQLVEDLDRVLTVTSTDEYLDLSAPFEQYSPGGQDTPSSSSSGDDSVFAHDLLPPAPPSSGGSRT
Sequence of FGFR1 (P11362 whole entry, looked up): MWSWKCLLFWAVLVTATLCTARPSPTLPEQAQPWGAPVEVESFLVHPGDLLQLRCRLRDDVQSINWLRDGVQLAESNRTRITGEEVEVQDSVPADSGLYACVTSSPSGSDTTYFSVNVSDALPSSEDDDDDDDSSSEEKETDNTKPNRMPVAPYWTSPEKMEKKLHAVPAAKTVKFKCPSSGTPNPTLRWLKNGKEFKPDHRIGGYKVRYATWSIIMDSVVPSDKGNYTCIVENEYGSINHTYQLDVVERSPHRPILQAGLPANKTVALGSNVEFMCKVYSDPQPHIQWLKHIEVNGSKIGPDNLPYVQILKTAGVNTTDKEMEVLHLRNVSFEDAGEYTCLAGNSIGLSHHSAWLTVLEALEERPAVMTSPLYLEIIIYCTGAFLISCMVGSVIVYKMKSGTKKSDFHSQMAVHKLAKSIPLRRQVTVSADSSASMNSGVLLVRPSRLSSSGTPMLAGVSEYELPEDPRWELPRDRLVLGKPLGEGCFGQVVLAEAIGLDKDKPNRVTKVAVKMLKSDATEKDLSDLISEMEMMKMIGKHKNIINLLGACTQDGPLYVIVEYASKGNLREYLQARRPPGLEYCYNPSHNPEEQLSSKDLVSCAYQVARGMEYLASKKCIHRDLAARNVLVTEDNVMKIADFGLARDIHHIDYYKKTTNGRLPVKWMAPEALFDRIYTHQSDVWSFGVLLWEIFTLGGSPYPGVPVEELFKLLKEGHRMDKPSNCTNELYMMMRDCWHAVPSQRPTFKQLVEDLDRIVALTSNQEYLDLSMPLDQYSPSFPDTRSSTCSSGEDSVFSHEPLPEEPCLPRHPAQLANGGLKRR
Sequence of Fes (P07332 whole entry, looked up): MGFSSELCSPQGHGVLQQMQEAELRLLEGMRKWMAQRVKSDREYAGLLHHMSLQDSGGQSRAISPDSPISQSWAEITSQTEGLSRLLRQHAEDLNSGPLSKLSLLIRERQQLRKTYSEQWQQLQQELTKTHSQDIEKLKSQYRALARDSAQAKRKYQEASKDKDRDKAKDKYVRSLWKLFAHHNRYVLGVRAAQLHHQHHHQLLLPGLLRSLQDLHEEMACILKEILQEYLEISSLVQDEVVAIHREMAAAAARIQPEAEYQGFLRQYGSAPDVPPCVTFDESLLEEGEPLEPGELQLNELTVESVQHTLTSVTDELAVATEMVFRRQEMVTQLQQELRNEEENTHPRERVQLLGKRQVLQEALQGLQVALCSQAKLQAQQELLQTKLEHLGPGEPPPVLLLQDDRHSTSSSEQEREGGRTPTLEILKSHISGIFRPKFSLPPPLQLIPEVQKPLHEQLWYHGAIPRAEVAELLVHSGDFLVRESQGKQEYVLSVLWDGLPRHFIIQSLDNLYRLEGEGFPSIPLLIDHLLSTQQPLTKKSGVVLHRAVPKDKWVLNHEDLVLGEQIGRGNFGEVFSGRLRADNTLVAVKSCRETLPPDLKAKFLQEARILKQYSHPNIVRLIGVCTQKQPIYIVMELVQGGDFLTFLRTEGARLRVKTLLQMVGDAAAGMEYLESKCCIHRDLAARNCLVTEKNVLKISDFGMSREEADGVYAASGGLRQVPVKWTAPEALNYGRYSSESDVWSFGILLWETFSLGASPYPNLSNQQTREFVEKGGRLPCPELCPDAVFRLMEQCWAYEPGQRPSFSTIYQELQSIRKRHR
Sequence of EPHB1 (P54762 whole entry, looked up): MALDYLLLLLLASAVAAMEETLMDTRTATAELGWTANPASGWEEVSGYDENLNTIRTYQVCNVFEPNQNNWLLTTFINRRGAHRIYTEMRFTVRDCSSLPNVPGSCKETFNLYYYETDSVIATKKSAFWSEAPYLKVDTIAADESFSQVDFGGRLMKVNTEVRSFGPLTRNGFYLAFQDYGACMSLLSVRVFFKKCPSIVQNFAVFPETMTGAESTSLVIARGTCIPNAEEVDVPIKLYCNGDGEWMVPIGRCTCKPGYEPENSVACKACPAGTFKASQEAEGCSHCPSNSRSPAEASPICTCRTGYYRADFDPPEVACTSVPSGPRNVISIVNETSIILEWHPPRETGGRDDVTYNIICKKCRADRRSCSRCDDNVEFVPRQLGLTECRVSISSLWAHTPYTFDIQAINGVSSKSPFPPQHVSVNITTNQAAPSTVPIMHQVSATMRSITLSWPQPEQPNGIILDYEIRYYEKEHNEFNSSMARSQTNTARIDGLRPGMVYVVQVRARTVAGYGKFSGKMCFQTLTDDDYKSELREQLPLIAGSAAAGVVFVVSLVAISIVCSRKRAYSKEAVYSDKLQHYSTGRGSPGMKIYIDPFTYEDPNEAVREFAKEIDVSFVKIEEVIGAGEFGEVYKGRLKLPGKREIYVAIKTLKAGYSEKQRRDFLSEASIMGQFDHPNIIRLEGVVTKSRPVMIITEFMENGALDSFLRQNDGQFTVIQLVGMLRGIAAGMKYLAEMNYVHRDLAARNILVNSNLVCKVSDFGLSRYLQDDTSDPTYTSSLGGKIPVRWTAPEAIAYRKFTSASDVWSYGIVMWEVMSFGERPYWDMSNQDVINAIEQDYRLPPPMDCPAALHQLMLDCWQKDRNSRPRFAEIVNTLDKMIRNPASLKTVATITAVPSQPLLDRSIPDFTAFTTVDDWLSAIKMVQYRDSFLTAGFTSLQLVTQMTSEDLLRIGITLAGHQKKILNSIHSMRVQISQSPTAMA
Sequence of Grb2 SH2 (P62993 whole entry, looked up): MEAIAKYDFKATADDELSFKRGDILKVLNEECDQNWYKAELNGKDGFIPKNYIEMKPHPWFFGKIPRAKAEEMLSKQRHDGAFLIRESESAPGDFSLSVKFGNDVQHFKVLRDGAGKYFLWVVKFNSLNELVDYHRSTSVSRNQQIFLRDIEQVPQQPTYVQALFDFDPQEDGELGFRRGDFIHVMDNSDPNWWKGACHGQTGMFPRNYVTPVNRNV

Row | Sequence | SH2 binding enrichment (SHP2-C SH2) | SH2 binding enrichment (Grb2 SH2) | SH2 binding enrichment (c-Src SH2) | phosphorylation enrichment (Jak2) | phosphorylation enrichment (Fyn) | phosphorylation enrichment (Hck) | phosphorylation enrichment (AncSZ) | phosphorylation enrichment (EPHB2) | phosphorylation enrichment (Fes) | phosphorylation enrichment (FGFR1) | phosphorylation enrichment (c-Src) | phosphorylation enrichment (FGFR3) | phosphorylation enrichment (Fer (mouse)) | phosphorylation enrichment (EPHB1) | phosphorylation enrichment (MERTK) | phosphorylation enrichment (c-Abl (mouse))
1 | LRWREYQRQDF [PRKRIP1_Y90_R87W_YF] | 1.82 | 2.02 | 1.34 | 6.28 | 1.01 | 2.04 | 4.24 | 2.29 | 4.93 | 2.28 | 2.67 | 2.67 | 1.67 | 1.91 | 1.69 | 3.64
2 | GLCSFYETSKM [MAGED2_Y449_R446C_YF] | 0.689 | 0.895 | 0.797 | 1.34 | 0.652 | 0.794 | 1.4 | 0.903 | 1.45 | 0.568 | 0.83 | 0.931 | 1.95 | 0.71 | 0.706 | 0.82
3 | GVVVPYEPPEV [TP53_Y220_S215G] | 0.636 | 0.614 | 0.575 | 1.25 | 0.366 | 0.41 | 0.892 | 0.559 | 0.905 | 0.39 | 0.352 | 0.581 | 0.563 | 0.493 | 0.387 | 0.695
4 | DDLTDYLMKIL [ACTA1_Y190_R185D] | 1.26 | 0.962 | 0.689 | 1.15 | 0.444 | 0.519 | 1.22 | 0.553 | 1.1 | 0.516 | 0.548 | 0.669 | 0.457 | 0.476 | 0.529 | 0.758
5 | ESAAIYNPVIF [RHO_Y301_K296E_YF] | 0.678 | 0.848 | 0.493 | 0.707 | 8.03 | 9.56 | 1.03 | 0.579 | 1.25 | 0.673 | 6.99 | 0.675 | 17.2 | 0.452 | 4.16 | 1.28
6 | FVTSMYNEILM [TRPV1_Y310] | 0.941 | 1 | 7.73 | 1.39 | 0.647 | 0.957 | 1.16 | 0.596 | 1.38 | 0.641 | 0.693 | 0.932 | 3.38 | 0.765 | 0.756 | 0.832
7 | WFPSTYVEEDE [VAV3_Y842] | 0.768 | 0.743 | 0.941 | 1.42 | 0.51 | 0.741 | 1.43 | 0.656 | 1.5 | 0.636 | 0.549 | 0.81 | 0.638 | 0.789 | 0.454 | 0.875
8 | ALAHKHHGGGG [HBB_Y146_Y146H] | 0.673 | 0.771 | 0.586 | 0.558 | 0.414 | 0.419 | 0.588 | 0.391 | 0.593 | 0.355 | 0.505 | 0.539 | 0.419 | 0.372 | 0.416 | 0.569
9 | EQQNMYRLKVL [ABCC6_Y372] | 0.566 | 0.79 | 0.499 | 0.561 | 0.41 | 0.475 | 0.861 | 0.5 | 0.706 | 0.521 | 0.452 | 0.545 | 0.488 | 0.56 | 0.401 | 0.619
10 | ALTDNYMFVVI [HAGH_Y61_L64V_YF] | 0.568 | 0.679 | 0.388 | 1.3 | 0.653 | 0.574 | 1.68 | 8.6 | 1.61 | 8.71 | 0.516 | 6.54 | 5.63 | 11.5 | 1.52 | 0.99
11 | SHLEDYPFDAE [AKR1B10_Y310_N313D] | 0.842 | 0.746 | 0.471 | 1.3 | 0.485 | 0.448 | 0.986 | 0.554 | 1.14 | 0.467 | 0.462 | 0.714 | 0.469 | 0.516 | 0.369 | 0.672
12 | QGCGIYKDYYR [PLA2G2D_Y82_S80G] | 0.931 | 0.956 | 0.497 | 1.21 | 5.71 | 3.57 | 1.69 | 0.904 | 1.59 | 1.1 | 6.8 | 1.19 | 0.67 | 1.04 | 0.773 | 1.18
13 | ASLEAYCKHKF [RXRA_Y403_YF] | 0.868 | 0.963 | 0.767 | 0.697 | 0.468 | 0.519 | 0.83 | 0.66 | 1.07 | 0.654 | 0.497 | 0.915 | 0.585 | 0.572 | 0.556 | 0.687
14 | LGGSPYPGVPV [FGFR1_Y701] | 0.874 | 0.873 | 0.546 | 0.503 | 0.524 | 0.481 | 0.591 | 0.615 | 0.881 | 0.514 | 0.359 | 0.463 | 0.413 | 0.493 | 0.4 | 0.675
15 | NTGDYYDLYGG [PTPN11_Y63] | 0.939 | 1.02 | 0.687 | 4.07 | 5.18 | 5.35 | 4.64 | 14.4 | 1.13 | 14.7 | 5 | 13.8 | 1.59 | 13 | 4.18 | 1.02
16 | LKRCQYVTEKV [ALDOA_Y204] | 0.654 | 0.742 | 0.53 | 2.26 | 0.823 | 0.689 | 1.59 | 0.89 | 1.75 | 1.11 | 0.796 | 0.924 | 0.794 | 1.9 | 0.672 | 1.24
